Source: the supplement of paper PMC7125110
± gives the standard error. Fewer inactive variants are shown than the library holds.

B1: glmS ribozyme (parent)
chain: AUAAAAGCGCCAGAACUACAGAAAUGUAGUUGACGAGGAGGAGGUUUAUCGAAUUUUCGGCGGAUGCCUCCAAA

Columns and labels:
Details in all cases: with glucosamine-6-phosphate
[1] = variants of: B1; assay: self-cleavage kobs at 640 uM GlcN6P; higher = faster cleavage; RNA array
How it was run: (§1)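 Glucosamine-6-phosphate in HEPES/KCl/Mg(OAc)2 buffer, at 40 μM to 10 mM, was flowed over barcoded ribozyme variants transcribed in situ by E. coli RNA polymerase on sequenced MiSeq chips. Tracking was through a hybridised Cy3 probe at 37 °C. kobs, kcat and KM came from exponential decay fits and weighted Michaelis–Menten fits of normalised per-tile medians.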

[2] = variants of: B1; assay: self-cleavage kobs at 2500 uM GlcN6P; higher = faster cleavage; RNA array
How it was run: as §1

[3] = variants of: B1; assay: self-cleavage kobs at 10000 uM GlcN6P; higher = faster cleavage; RNA array
How it was run: as §1

Variant	self-cleavage kobs at 640 uM GlcN6P [1] [s⁻¹]	self-cleavage kobs at 2500 uM GlcN6P [2] [s⁻¹]	self-cleavage kobs at 10000 uM GlcN6P [3] [s⁻¹]
C34G G44U C50U C71U	< 1e-05	< 1e-05	
U31A U54A C68A	6.98e-05 ± 2.6e-05		
G37C A53C G60A	< 1e-05		
A36C G37C U46A A48G C70G	< 1e-05		
G37C G62C G63C C67U	< 1e-05		
G35C G38A U69G	0.00083 ± 0.00024		
G32C U47G G59C	< 1e-05	< 1e-05	
A33C G35C U49G G59C	< 1e-05	< 1e-05	
A33C G41U U47G U65C C68A	< 1e-05		
G38A G44C C67U C71A	< 1e-05	< 1e-05	
A39C U45A C68G	< 1e-05		
A33G A39G G41A	< 1e-05		
G37A U55G C70U	0.000222 ± 4.2e-05	0.000106 ± 3e-05	
G35U U47A	< 1e-05	< 1e-05	
G32A A33G C50A	< 1e-05		< 1e-05
U30C U45G U56G C68G	< 1e-05	< 1e-05	
G35A G38U A42C U55C	< 1e-05		

Variant	self-cleavage kobs at 640 uM GlcN6P [1] [s⁻¹]	self-cleavage kobs at 2500 uM GlcN6P [2] [s⁻¹]	self-cleavage kobs at 10000 uM GlcN6P [3] [s⁻¹]
U30G C34U G35A C68A	0.00169 ± 0.00067		
U30C G38U A42U	< 1e-05		< 1e-05
G32A U49C C50G	< 1e-05		
G35U G43U G60A	< 1e-05	< 1e-05	
A33G G38U U65A C70G	7.69e-05 ± 2.1e-05		
A36U A39G U45G C61U G62C	< 1e-05	< 1e-05	< 1e-05
G37A C50U G51U	< 1e-05	< 1e-05	
A36C G44U C61U C67U	< 1e-05	< 1e-05	
U31G G38U U69A C71U	0.000772 ± 0.0003		
U31A G35C G38U A48U U49G G63C	< 1e-05	< 1e-05	
G35C G40U A52U G63U	< 1e-05	< 1e-05	
G32U G41U A52G G60A	< 1e-05		
A33G G43U G59U A64G	< 1e-05	< 1e-05	
C34A G35U A36U	< 1e-05		< 1e-05
U31G G32U G40A A48C	< 1e-05	< 1e-05	
G38C G41U C67U	< 1e-05		
